Experimental data from paper PMC12033333 (Nature Communications, 2025).

T1: MBP-fused phyB^OPM (Arabidopsis thaliana, UniProt P14713 642-1172)
T1 sequence: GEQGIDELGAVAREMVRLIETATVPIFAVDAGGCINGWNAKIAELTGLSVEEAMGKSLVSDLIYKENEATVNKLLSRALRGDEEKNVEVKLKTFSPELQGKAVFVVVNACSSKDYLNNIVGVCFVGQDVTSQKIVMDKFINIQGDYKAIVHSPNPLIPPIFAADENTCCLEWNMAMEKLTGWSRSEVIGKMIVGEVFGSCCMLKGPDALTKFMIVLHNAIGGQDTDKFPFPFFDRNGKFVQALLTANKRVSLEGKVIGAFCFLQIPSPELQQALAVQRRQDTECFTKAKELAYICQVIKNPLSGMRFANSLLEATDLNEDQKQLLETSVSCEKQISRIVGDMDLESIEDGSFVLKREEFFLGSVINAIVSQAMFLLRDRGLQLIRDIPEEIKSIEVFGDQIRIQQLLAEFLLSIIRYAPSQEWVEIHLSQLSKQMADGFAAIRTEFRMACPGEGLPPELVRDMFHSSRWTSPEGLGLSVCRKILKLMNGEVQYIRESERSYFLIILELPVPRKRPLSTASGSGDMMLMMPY

T2: SBP-fused phyA^PSM (Arabidopsis thaliana, UniProt P14712 1-615, chromophore-bound (phycocyanobilin, PCB))
T2 sequence: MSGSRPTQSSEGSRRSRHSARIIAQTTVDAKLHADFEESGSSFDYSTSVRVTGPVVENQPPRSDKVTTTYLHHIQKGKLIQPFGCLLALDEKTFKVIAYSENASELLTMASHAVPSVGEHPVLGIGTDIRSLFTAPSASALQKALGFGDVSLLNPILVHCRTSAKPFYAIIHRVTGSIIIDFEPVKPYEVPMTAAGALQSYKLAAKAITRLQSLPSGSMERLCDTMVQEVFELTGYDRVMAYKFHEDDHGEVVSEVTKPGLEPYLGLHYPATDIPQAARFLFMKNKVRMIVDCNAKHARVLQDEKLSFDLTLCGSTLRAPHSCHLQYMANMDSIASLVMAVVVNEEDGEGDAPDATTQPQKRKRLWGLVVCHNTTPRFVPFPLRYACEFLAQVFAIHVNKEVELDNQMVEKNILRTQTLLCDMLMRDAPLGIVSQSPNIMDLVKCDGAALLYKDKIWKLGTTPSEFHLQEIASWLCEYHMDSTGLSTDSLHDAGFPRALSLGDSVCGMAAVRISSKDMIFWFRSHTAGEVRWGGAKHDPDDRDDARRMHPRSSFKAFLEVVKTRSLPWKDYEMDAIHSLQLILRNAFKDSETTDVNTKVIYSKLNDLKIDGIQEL

T3: GST-PIF3 (Arabidopsis thaliana, UniProt O80536 1-524)
T3 sequence: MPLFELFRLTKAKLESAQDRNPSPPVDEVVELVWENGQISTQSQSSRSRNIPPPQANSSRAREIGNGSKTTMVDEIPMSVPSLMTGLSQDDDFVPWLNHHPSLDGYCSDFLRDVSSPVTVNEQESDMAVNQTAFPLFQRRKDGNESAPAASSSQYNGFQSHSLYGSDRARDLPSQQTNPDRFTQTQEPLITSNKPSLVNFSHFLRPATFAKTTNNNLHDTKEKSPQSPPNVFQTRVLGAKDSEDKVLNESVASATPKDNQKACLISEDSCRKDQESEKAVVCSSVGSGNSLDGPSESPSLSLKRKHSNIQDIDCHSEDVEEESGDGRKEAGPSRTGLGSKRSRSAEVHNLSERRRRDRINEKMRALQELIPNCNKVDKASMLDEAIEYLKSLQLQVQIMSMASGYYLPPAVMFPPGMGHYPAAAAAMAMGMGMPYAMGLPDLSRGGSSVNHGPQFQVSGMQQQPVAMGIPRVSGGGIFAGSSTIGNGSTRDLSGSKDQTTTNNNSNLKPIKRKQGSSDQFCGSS

B1: GST-fused APA (PIF3 86-221 a.a.) (domain or fragment)
chain: GLSQDDDFVPWLNHHPSLDGYCSDFLRDVSSPVTVNEQESDMAVNQTAFPLFQRRKDGNESAPAASSSQYNGFQSHSLYGSDRARDLPSQQTNPDRFTQTQEPLITSNKPSLVNFSHFLRPATFAKTTNNNLHDTK
B2: MBP-fused phyA^OPM (domain or fragment)
chain: KIDGIQELEAVTSEMVRLIETATVPILAVDSDGLVNGWNTKIAELTGLSVDEAIGKHFLTLVEDSSVEIVKRMLENALEGTEEQNVQFEIKTHLSRADAGPISLVVNACASRDLHENVVGVCFVAHDLTGQKTVMDKFTRIEGDYKAIIQNPNPLIPPIFGTDEFGWCTEWNPAMSKLTGLKREEVIDKMLLGEVFGTQKSCCRLKNQEAFVNLGIVLNNAVTSQDPEKVSFAFFTRGGKYVECLLCVSKKLDREGVVTGVFCFLQLASHELQQALHVQRLAERTAVKRLKALAYIKRQIRNPLSGIMFTRKMIEGTELGPEQRRILQTSALCQKQLSKILDDSDLESIIEGCLDLEMKEFTLNEVLTASTSQVMMKSNGKSVRITNETGEEVMSDTLYGDSIRLQQVLADFMLMAVNFTPSGGQLTVSASLRKDQLGRSVHLANLEIRLTHTGAGIPEFLLNQMFGTEEDVSEEGLSLMVSRKLVKLMNGDVQYLRQAGKSSFIITAELAAANK

How the values were obtained:
Test in all cases: pull-down
MBP-fused phyA^OPM = biological target: B2
MBP-fused phyB^OPM = biological target: T1, MBP-fused phyB^OPM
SBP-fused phyA^PSM = biological target: T2, SBP-fused phyA^PSM
GST-PIF3 = biological target: T3, GST-PIF3

Binder	binding result (MBP-fused phyA^OPM)	binding result (MBP-fused phyB^OPM)	binding result (SBP-fused phyA^PSM)	binding result (GST-PIF3)
B1	binds	binds	–	–
B2	–	–	binds	binds
